Tests used:
[1] = target: K11V-TR, cylindrin tandem repeat V2L variant; test: native MS
[2] = target: K11V-TR, cylindrin tandem repeat V2L variant; test: SEC
[3] = target: K11V-TR, cylindrin tandem repeat V2L variant; test: crystal structure
crystal structure = target: the molecule itself; test: crystal structure

Row | Molecule | stoichiometry N [1] | stoichiometry N [2] | stoichiometry N [3] | binding result (crystal structure)
1 | K11V-TR, cylindrin tandem repeat V2L variant (peptide) | 3 | 3 | 3 | 
2 | GDVIEV [G6V, six-residue segment GDVIEV of alphaB crystallin] |  |  |  | binds
